# Data reported in patent US20260055188A1 (SHENGHE CHINA BIOPHARMACEUTICAL, published 2026).
# Where two headings read alike, the source gives them in different places.
# T1: Human-TNFR2-His (manufacturer: SINO, CAT: 10417-H08H) (human, UniProt P20333 23-257)
# T1 construct: Bought protein; also called human TNFR2 protein; TNFR2 protein; not shown: His tag
# T1 sequence (looked up): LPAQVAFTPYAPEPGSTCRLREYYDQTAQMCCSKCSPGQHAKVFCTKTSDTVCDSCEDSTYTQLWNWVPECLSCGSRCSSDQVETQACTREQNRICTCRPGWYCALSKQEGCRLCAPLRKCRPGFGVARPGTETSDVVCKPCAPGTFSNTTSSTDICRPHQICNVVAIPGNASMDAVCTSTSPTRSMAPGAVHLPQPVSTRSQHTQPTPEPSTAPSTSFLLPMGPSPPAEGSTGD
# T2: Human-B7H3 His (manufacturer: Acro, CAT: TB73-H52E2) (human, UniProt Q5ZPR3-2 29-245)
# T2 construct: also called human B7H3 protein; B7H3 protein; not shown: His tag
# T2 sequence (looked up): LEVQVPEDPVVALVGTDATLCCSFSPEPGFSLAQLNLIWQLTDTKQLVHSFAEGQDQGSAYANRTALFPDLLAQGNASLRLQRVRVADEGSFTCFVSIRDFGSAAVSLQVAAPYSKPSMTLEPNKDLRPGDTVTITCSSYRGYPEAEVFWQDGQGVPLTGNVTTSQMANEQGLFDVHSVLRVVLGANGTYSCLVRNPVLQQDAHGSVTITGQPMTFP
# T3: Human-B7H3 Fc (manufacturer: Acro, CAT: B73-H5253) (human, UniProt Q5ZPR3-2 29-245)
# T3 construct: Bought protein; not shown: Fc
# T3 sequence (looked up): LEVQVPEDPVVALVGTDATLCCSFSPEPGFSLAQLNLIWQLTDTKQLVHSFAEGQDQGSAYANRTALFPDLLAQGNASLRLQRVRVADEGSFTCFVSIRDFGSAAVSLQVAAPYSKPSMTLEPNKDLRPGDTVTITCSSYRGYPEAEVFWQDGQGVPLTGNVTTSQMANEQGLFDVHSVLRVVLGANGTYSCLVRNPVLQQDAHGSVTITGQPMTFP
# T4: human CD24 on MCF-7 tumor cells (human, UniProt P25063 27-59)
# T4 construct: whole, on cells; also called CD24 protein; MCF-7 tumor cells with high expression of human CD24
# T4 chain (looked up): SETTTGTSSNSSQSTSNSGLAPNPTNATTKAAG
# Columns and labels:
# [1] = molecular target: T1, Human-TNFR2-His (manufacturer: SINO, …); assay: BLI, antibody on AHC sensor, 100 nM human-TNFR2-His in solution
# Experimental: The AHC sensor was soaked in 0.02% PBST (0.02% Tween 20, pH 7.4, 1×PBS) as a buffer for 600 s to remove the sucrose covering the sensor surface. The AHC sensor was equilibrated with 0.02% PBST (0.02% Tween 20, pH 7.4, 1×PBS) as a buffer for 60 s, the antibody in the sample plate was solidified for 300 s, and the secondary equilibration buffer was used for 180 s. 100 nM human-TNFR2-His (manufacturer: SINO, CAT: 10417-H08H, LOT: LC12SE2902) protein was bound to the antibody for 300 s and then dissociated for 600 s. After dissociation, 10 mM glycine (pH 2.0) was used as a regeneration buffer for 30 s. The sensor was regenerated with 10 mM glycine (pH 2.0).
# [2] = molecular target: T2, Human-B7H3 His (manufacturer: Acro, …); assay: BLI, antibody on AHC sensor, 100 nM His-tagged protein (Acro TB73-H52E2) in solution
# [3] = molecular target: T2, Human-B7H3 His (manufacturer: Acro, …); assay: ELISA: Human-B7H3 His coated (0.3 µg/mL), antibody titrated, goat anti-human IgG Fc detection, OD450 (Example 3)
# Experimental: Human-B7H3 His (manufacturer: Acro, CAT: TB73-H52E2, LOT: 2052-21AXF1-YS) was diluted to 0.3 μg/mL with a coating solution (1×PBS, pH7.4), and coated into a 96-well ELISA plate at 100 μL/well overnight at 4° C. The coating solution was poured off. Each well was washed with 1×PBST at 300 μL, washed 4 times with a plate washer, and patted dry on a flat paper. It was blocked with 3% skim milk powder at 300 μL/well, and incubated at 37° C. for 1 h. The blocking solution was poured off, washed 4 times with a plate washer, and patted dry on a flat paper. Negative control and positive control were set up. […] The variable region of the antibody sequence of the positive control consists of SEQ ID NO: 1 and SEQ ID NO: 5, with the constant region of human IgG1 added (SEQ ID NO: 85 and SEQ ID NO: 86). The positive control and antibody were diluted to 10 μg/mL with 3% skim milk powder as the starting concentration, and then diluted by 3-fold gradient (11 gradients in total). A blank well was set up and only the diluent was added. It was incubated at 37° C. for 1 h at 100 μL/well. The liquid in the well was discarded, washed 4 times with a plate washer, and patted dry on a flat paper. Goat anti-human IgG Fc was diluted with 3% skim milk powder at 1:20000, and incubated at 37° C. for 1 h at 100 μL/well. It was washed 6 times with a plate washer, and patted dry on a flat paper. TMB color developing solution was added at 100 μL/well, and wrapped with aluminum foil. Color development was performed at 37° C. in the dark for 8 min. Termination solution 1M HCl was added to terminate the color development reaction at 100 μL/well. Readings were taken at 450 nm on an ELISA reader.
# [4] = molecular target: T3, Human-B7H3 Fc (manufacturer: Acro, CAT: …); assay: bridging ELISA: Human-B7H3 Fc coated (0.5 µg/mL), antibody titrated, then Human-TNFR2-His (0.5 µg/mL), HRP-labeled anti-His detection, OD450 (Example 4); half-maximal concentration of the bridging signal
# Experimental: Human-B7H3 Fc (manufacturer: Acro, CAT: B73-H5253, LOT: 2053b-201XF1-UD) was diluted to 0.5 μg/mL with a coating solution (1×PBS, pH7.4) and coated into a 96-well ELISA plate at 100 μL/well at 4° C. overnight. The coating solution was poured off. Each well was washed with 1×PBST at 300 μL, washed 4 times with a plate washer, and patted dry on a flat paper. It was blocked with 3% skim milk powder at 300 μL/well, and incubated at 37° C. for 1 h. The blocking solution was poured off, washed 4 times with a plate washer, and patted dry on a flat paper. […] Starting at 300 nM, which was used as the initial concentration for 3-fold dilution, a total of 8 gradients were diluted, and a blank well was set up, and only diluent was added. It was incubated at 37° C. for 1 h at 100 μL/well. The liquid in the well was discarded, washed 4 times with a plate washer, and patted dry on a flat paper. Human-TNFR2-His (manufacturer: Sino, CAT: 10417-H08H, LOT: LC12SE2902) was diluted to 0.5 μg/mL, 100 μL was added to each well, and incubated at room temperature for 1 h. The plate was washed 3 times with PBST, and then the HRP-labeled his antibody was diluted with sample diluent at 1:10000, 100 μL was added to each well, and incubated at room temperature for 1 h. It was washed 6 times with a plate washer, and patted dry on a flat paper. […] Readings were taken at 450 nm on an ELISA reader.
# [5] = molecular target: T4, human CD24 on MCF-7 tumor cells; assay: flow cytometry on MCF-7 cells, 150 nM antibody, anti-human IgG Fc detection
# Experimental: 100 μL of dilution was added to the blank control group, and 100 μL of fluorescent secondary antibody dilution was added to the rest of the sample groups respectively. After incubation for 0.5 h at room temperature and 4° C. protected from light, PBS was added to wash and centrifuged (3000 rpm, 3 min) twice. After discarding the supernatant, 80 μL of the dilution was added and resuspended.
# [6] = molecular target: T1, Human-TNFR2-His (manufacturer: SINO, …); assay: ELISA: Human-TNFR2-His coated (0.3 µg/mL), antibody titrated, goat anti-human IgG Fc detection, OD450 (Example 10)
# Experimental: (§1) Human-TNFR2-His (manufacturer: SINO, CAT: 10417-H08H, LOT: LC12SE2902) was diluted to 0.3 μg/mL with a coating solution (1×PBS, pH7.4), and coated into a 96-well ELISA plate at 100 μL/well overnight at 4° C. The coating solution was poured off. Each well was washed with 1×PBST at 300 μL, washed 4 times with a plate washer, and patted dry on a flat paper. It was blocked with 3% skim milk powder at 300 μL/well, and incubated at 37° C. for 1 h. The blocking solution was poured off, washed 4 times with a plate washer, and patted dry on a flat paper. Negative control and positive control were set up. […] The positive control and antibody were diluted to 10 μg/mL with 3% skim milk powder as the starting concentration, and then diluted by 3-fold gradient (11 gradients in total). A blank well was set up and only the diluent was added. It was incubated at 37° C. for 1 h at 100 μL/well. The liquid in the well was discarded, washed 4 times with a plate washer, and patted dry on a flat paper. Goat anti-human IgG Fc was diluted with 3% skim milk powder at 1:20000, and incubated at 37° C. for 1 h at 100 μL/well. It was washed 6 times with a plate washer, and patted dry on a flat paper. TMB color developing solution was added at 100 μL/well, and wrapped with aluminum foil. Color development was performed at 37° C. in the dark for 8 min. […] Readings were taken at 450 nm on an ELISA reader.
# [7] = molecular target: T1, Human-TNFR2-His (manufacturer: SINO, …); assay: as above; remark: listed apart in the source
# Experimental: as §1
Kd [1] [nM],koff [1] [s⁻¹],kon [1] [M⁻¹ s⁻¹],Kd [2] [nM],koff [2] [s⁻¹],kon [2] [M⁻¹ s⁻¹],EC50 (read off the curve) [3] [nM],EC50 (read off the curve) [4] [nM],E1 Mean PE-A [5],EC50 (read off the curve) [6] [nM],EC50 (read off the curve) [7] [nM],Binder
2.89,0.000665,230000,159,0.00174,10900,~0.3,~0.5,–,–,–,"TB-C1 (bispecific antibody, human IgG1, kappa, also called antibody TB-C1) light: DIVMTQSPATLSVTPGDRVSLSCRASQSISDYLHWYQQKSHESPRLLIKYASQSISGIPSRFSGSGSGSDFTLSINSVEPEDVGVYYCQNGHSFPLTFGAGTKLELKRTVAAPSVFIFPPSDEQLKSGTASVVCLLNNFYPREAKVQWKVDNALQSGNSQESVTEQDSKDSTYSLSSTLTLSKADYEKHKVYACEVTHQGLSSPVTKSFNRGEC heavy: not shown"
–,–,–,–,–,–,–,–,4.45e+06,–,–,"anti-CD24 control antibody (variable region SEQ ID NO: 9 and SEQ ID NO: 13, constant region of human IgG1 SEQ ID NO: 85 and SEQ ID NO: 86) (antibody, V domains shown) VH: EVQLQESGPGLVKPSQTLSLTCTVSGYSITSGYTWHWIRQFPGNKLEWIGHIQYTGNTKYNPSLESRITISRDTSKNQFSLKLSSVTAADTATYYCARGSTNSNDYWGQGTLVTVSS VL: DIVMTQSPSSLAVSLGERATINCKSSQSLLYSNDQKNYLAWYQQKPGQSPKLLIYWASTRESGVPDRFSGSGSGTDFTLTISSLQAEDVAVYYCQQYFIYPLTFGGGTKLELKR"
0.324,0.000127,391000,–,–,–,–,–,–,~0.03,~0.03,"anti-TNFR2 control antibody (variable region SEQ ID NO: 83 and SEQ ID NO: 84, constant region of human IgG1 SEQ ID NO: 85 and SEQ ID NO: 86) (antibody, V domains shown, also called Positive control 1) VH: EVQLVQSGAEVKKPGATVKISCKVSGYSITDYLLHWVQQAPGKGLEWMGWIDPEDAKTKYGQKFQSRVTITADTSTDTAYMELSSLRSEDTAVYYCAANSGTGTMDAWGQGTLVTVSS VL: DIVMTQSPATLSVSPGERATLSCKASQNVGSNVDWYQQKPGQSPRVLIYKASIRYTGIPARFSGSGSGTEFTLTISILQSEDFAVYFCMQSKSYPITFGQGTKLEIKR"
